Reference: PMC6224480, “Insights into Kinesin-1 Activation from the Crystal Structure of KLC2 Bound to JIP3” (Structure(London, England:1993), 2018)
*: point of attachment. FITC = O=C1OC2(c3ccc(O)cc3Oc3cc(O)ccc32)c2ccc(NC(=S)*)cc21

Assays:
Experiment in all cases: ITC; FITC-CSTN-WD2 peptide as titrant (380 uM) into wild-type or mutant KLC2^TPR-myc (44-50 uM) in the cell; 25 C; 0.1 M NaCl, 25 mM HEPES, 1 mM TCEP, pH 7.5; 2-3 experiments globally fitted with the model A + B -> AB; apparent stoichiometry Napp
[1] = target: KLC2^TPR-myc (kinesin light chain 2 TPR domain, wild type, C-terminal myc tag) (mouse) (UniProt O88448)
[2] = target: KLC2^TPR-myc Tyr^208Ala mutant (mouse) (UniProt O88448)
[3] = target: KLC2^TPR-myc Thr^200Asp mutant (mouse) (UniProt O88448)

Binder: {FITC}-TRQLEWDDSTL-OH [FITC-labeled CSTN(WD2) peptide (FITC-…-COOH)]
- Ka [1]: 820000 M⁻¹
- stoichiometry N [1]: 0.67
- Ka [2]: 541000 M⁻¹
- stoichiometry N [2]: 0.67
- Ka [3]: 845000 M⁻¹
- stoichiometry N [3]: 0.71
